# In the DeepSol protein solubility set:
# Assay: soluble on expression in E. coli; label from the status in PepcDB or PDB records
row,Sequence,soluble on expression in E. coli
1,MASEDKFESVLSTRYCKNSPLVSILSETNKATLWRQLWIWLAEAEKELGLKQVTQDAIDEMKSNRDVFDWPFIRSEERKLKHDVMAHNHAFGKLCPTAAGIIHLGATSCFVQDNADLIAYRDSIDHILKRFATVIDRLAAFSLKNKEVVTVGRTHYQTASLVTVGKRGVLWAQELLMAFQSLSEFRDKMRFRGIKGATGTQDSFLTLFAGDESKVEALDELVTKKANFSNRFLITGQTYSRQQDSQLVFSLSLLGAAAKKVCTDIRVLQAFGELLEPFEKDQIGSSAMPYKKNPMKSERCCALSRKLINAPQEALTILADQGLERTLDDSAGRRMLIPDVLLTAEALLTTLQNIFEGLSVQTDNVKKIVEDEIAFLGLEKAMMMLTEEGVDRQQAHAVIRKTALEAKQLQATQKVDIRQTMADPFFDSVRDRVVGLVNNPINFTGRCVSQTESFIAKELKPTIDKYLDKSAGNVQLDV,soluble
2,MGSDKIHHHHHHMPDGNQSLTVTVLSAIAEIGAEEWDGCAGSHNPFIRHAFLLAMEHSGSATAQTGWTPRHLAVRDAEGRLLAAAPLYLKSHSFGEYVFDWSWAQAYERAGGRYYPKLQCAVPFTPVTGPRLLVRPGEDGPRLRRVLAASMVDLARRLGASSVHVTFPSGQEYEGLGEVGYLQRLGSQYHWSNQGYQSFDDFLGQLSSRKRKQIRKERDAVARSGVRITTLVGTEVKSRHWDVFHAFYESVVDRKWGRAYVNRAFFEELSASNLAEAVVLVWAEDDGEPLGAAFNMLGKDTLYGRTWGGGRHVDFLHFEACYYRALDFAIAHGLARVEAGAQGEHKVSRGYLPTPTYSAHWIADAALAEPVARYLAHERAQVAEDMADQTEEGPFRKA,not soluble
3,GPGSMQAPSEDDVARKEALKRRVEEHMLWKMTFFQSRPPPPFIPKCRRRPEPIANAPVHSFYKRALEIVSAEKEHMSSFCSSASPPTMTKTEPPEGDGAKSKQDVWKHKMMLEMERRNPYTDINIRTDPRSTVVVSSLHPKSLEEDIRLFGEQFGRVVSVRLICDHNGKSRRYGFVQFGLEAEARKAVAHSRKRRLHGHAVVMEMERGRLDRDFLPKRLAEAKRQIEGSSSLCSDKRQRMEGSVKCPPAVAAGRSLPIPVSDTRDEVDAFLDDIMNLT,not soluble
4,MFMEVSLTSLPAHVMNALDAIWEGSIADSLESETLEFKEDPSCAGRGKQHGNPQAALIEKLIDEAVCLANGDAGTGHIVVGIKDKIGGPEAFTGTTFDTEKIAKKIFDGTRPNLRPEVHEVRYQNNRLIVIYIPEALSLYSRSKGQTSKRVGSHCEPLSEEQRRAIAATRAHADYSNGISEFNVDDIAADTIQEVRRLLKTKRAQSGIDTSLPTTTNGLLRELGLIDNYGALKRAGAILLLPAPEGQLSIRHFWRSFPGIDPEVTDYNQPLLIALSSLKRRITENANKEIKRIQFSDGQEIAVSAFPQTAVDEVVTNAIIHRDWRLSRPVVIDQSPQTLKVWSPGSLPVGVTPNRLLTTQSIPRNSRLMSAMRMLGLAEESSRGFDRIWAALLGSGRDIPDVHTEDTFVEVILHSGNPDESFIKALHELSLSFNPDMLHSVNTLIVLWHLWTSPVISLKQARVKTQTSSKEATELMFALESNGLLTQIHNTDEWFLSEKARKTTNYYQSETIPQSSVQTWVEEKLSSGSPISAAEIAESIGMPRPEITEILRNLRRAGKAHIDPSGPQRGSGTRWIKGT,not soluble
5,MKMSTKGRYGLRAMLDIAVNSKGDIVSVKSIAERQNISESYLEQVFSILRKAAIVKSIKGAQGGYVLADDPSNITVGKILRTLEGNLNVVDIDDRDSEVSKEEKCINEFVWNKINKSIDKVVDNITLGDLLREYQKLEDNSSVMYYI,soluble
6,MGHHHHHHSHMKAFSPVRSVRKNSLSDHSLGISRSKTPVDDPMSLLYNMNDCYSKLKELVPSIPQNKKVSKMEILQHVIDYILDLQIALDSHPTIVSLHHQRPGQNQASRTPLTTLNTDISILSLQASEFPSELMSNDSKALCG,soluble
7,MGSDKIHHHHHHMARARTQYKCRSCGYISASYLGRCPNCGAWNQFEKESQEVRQTSTKATPSRLMASVGAKEAVKMSTVKAEKEERVLTKSSELNRVLGGGIVPGSLVLIGGDPGIGKSTLMLQIMSELAEKYKVLYVSGEESASQIKLRADRLGLGQSPMLLYPESNMEHIRDQIDDVKPDFVVIDSIQTMNEPSLDSMVGSASQVREVTAELMKIAKLDQVTVFVIGHVTKEGSIAGPKILEHMVDTVLYFEGDEHHAYRILHSVKNRFGAANEIGMFEMKTEGLAEVTNPSAVFLDERLPDSTGSAVVVSLEGTRPIL,not soluble
8,MFSKSSNRFGTTSIFGDQSIKDEYRNRQRRLSLIGGPISGTSPNRRESLVRELRTVSLHQYTEDPTLAWEMLKEKRPVKPVRQMRLDTPVKPDHVRFVCIGCTHGEQFDISKLPPGDVLLVAGDFTSCGLPNEVHNFNKLLGKLKYSYKVVIGGNHECTFDDTFLKLKQESEPKEMALKQALLSAIHSDSKGGISAKDLLSNAIYLEDNVIELFGITIYGTPWQPKVDNWAFNLSRGQQLLDKWNLIPAALTCF,not soluble
9,MLTDGSYFHLHLVSDSTGETLITVSRAVTAQYANVTPVEHVYPLVRSQKQLDRVLQEIEEAPGIVLFTLLETELVNRLEAKCQEINSPSLSIIGPVMQLFEAYLGASTMGRVGAQHTLNAEYFQRIDALNYSMMHDDGQHVEGLEEADVVLVGVSRTSKTPTSIYLANRGIRTANVPLVAGIPIPHQLETLKKPLVVSLHASPERLIQVRQNRLLSLGAGSGNDSYIDRQAVTDEVLLARKLSAKYGWSLLDVTRRSIEETAAAIMKLLADRQRQRVPELEHHHHHH,not soluble
10,MGSDKIHHHHHHMMKSRDKKDLILESIIQTYLLDNAPIGSNELNSNLCIPASTIRVYLKRLSDEGLITQLHISSGRIPTILTMQNYWQNFWEKEQDKNIHIKNESFLKELSKEFEIYCLVYGGRSLVLKEVLDLNTKFIVLDFEDEELVLKYEKEAWNFLQSLIGLDLSSIEKIALRVHFIDLVEKIASLRQNLICYRSNEERAYQIYQNDEFVKLLDCQIHRHFKESLEFEPLFKEGFMGLKVDAQFLGEDVNIILAGSVYTDYKKILQYIKEAA,not soluble
11,MAYKYDRDLEFLKQLESSDLLDLFEVLVFGKDGEKRHNEKLTSSIEYKRHGDDYAKYAERIAEELQYYGSNSFASFIKGEGVLYKEILCDVCDKLKVNYNKKTETTLIEQNMLSKILERSLEEMDDEEVKEMCDELSIKNTDNLNRQALSAATLTLFKMGGFKSYQLAVIVANAVAKTILGRGLSLAGNQVLTRTLSFLTGPVGWIITGVWTAIDIAGPAYRVTIPACIVVATLRLKTQQANGDKKSLQIESI,not soluble
12,MAHHHHHHMVWKGSRERGVQEYRKKSKGNKPTKGEKVSKKGVSSSRQPKQRELLSAKQQQQQNRKNEELRAALAGAFSTEVSSSNAGPAFDGYGKGSPTDRLQFGYAPAVAAEAVAYHSTISTDAWIEARRTRYRTAIVEQKKLRRPNCEPITSILKLQGHWRSTELFEREVHGSHAVAQDKVDDILDTFVSRQRVA,not soluble
13,MNILLAGGSGLIGQELVRGMGEEHHYTVLGRDKDAIQKIFTTKASSLSWDELNTQDASRFDAVINLCGVNIAISRWTPKIKEEIISSRVQTTENLLHWILQQNAKPRFYCANAVGIYGLQENGDATDLTEDTAINWEHPKDYLSEVGIRWQQALQKAEEAGLPVTSTRFGVVLKKGKGFLGKLYPSFICGLGSTIGDGRQYLSWIDSEDLVNAYRFLLNHPEITGPVNVTSPNPCMQREFAKAFAKSLHRPLLLWTPAFIIHLLFGEMGDCLINHGQKVKPKRLLEAGFEFKWPDIEKALKHQYSAILEHHHHHH,soluble
14,MGLVDYAGSESESDEEMETQQKNSLAPQNQQLVDDEAFFDNTEKSSSPNMNKEDVLEELVKPKEWEVKLAEKARRKLEKKALKKAQKEERKKEKKLAKKAMKVEKIPKIGGGIQKAKGKVIISAFGALAGITGENSSDDSDNEGAAVATVKPKLGNSFLSNLPAPKGRDNRSDGANVFDKSMVPHSVSKKATPAAAPVFKPAPAPKLPDDSDDDDDGPTDFFGFSSAPTRKESEIPSEIPYMTMNSSMDVVGPSRPDEGMDPRQMYEMPEEEEDVQEGPSASNAWLHRKINDEQAHKLLMRFSHDIGQEERRSINEMANSIVDVNVDDALGPDVKTNIIKNLGHRAFVEATSAPLPQVQTQGQMSRRKHQITYLASLAVSREEQLKDQWADQKQSKRMARQKYGF,not soluble
15,MEVDPGGGKKPMIVKKMVAFSKREEERILLEIDLYKKLENNEFVIDLMAHIVDDITHYLLFDKYSQNFLEYIEELKIGGEVDELKHLKYFSGIVSAIEQLHGFEFAHLDIKPANILKSGDTIKMIDFGSATKMPIEIKTSADHHRHKEDAEELCSMMYRAPELFNCEIGSTLTTAVDVWALGVCLYEFLYLENPFNKIYEQGGSIALATQSPHMIKWNENRHISEKSINLIKSILIVDPNQRPTIGELRAKVDNLLANFDTPEEAENPEITDEEFDLGMRETT,not soluble
16,MRMVDIISKKRDGKALSTEEIQFFIDGYTNGEIPDYQASALAMAIFFQDMNDQERADLTMAMVGSGDTIDLSEIEGIKVDKHSTGGVGDTTTLVLAPLVAAVGVPVAKMSGRGLGHTGGTIDKLESIEGFHIELDKKDFIDLVNRDKVAVIGQSGNLTPADKKMYALRDVTGTVNSIPLIASSIMSKKIAAGADAIVLDVKTGAGAFMKTDEDAENLAHAMVRIGNNVGRNTMAVISDMSQPLGEAIGNALEVKEAIDTLKGQGPEDLTELVLVLGSQMVVLAKQAETLDEARAKLIEVIENGAALEKFKTFLSNQGGDASIVDHPEKLPQAKYQIEVPAKTSGFVSQIVADEIGIAAMILGAGRATKEDEINLAVGLMLRKKVGDAVKEGESLVTIFADQEDVENVKAKIYENIQISDHAIAPTLVHKVITE,not soluble
17,TDKTFFDAKMEEQAKRHAQHNNTESNLEPDIKNAPGGIRDMNQIGWIAKRHFRVNRIYDLVHLGFITEYELKVLEEAESFLWEIRHHLHLLSKRDENRLLFDHQREIAAKFGYTRAEGQPVNFAVEQFMKRYYRTAQQVSTLNEMLLAYFNESVITPRLPNYERKIEEINENFKLVDGKLAVQHHKVFSENPSAILELFYLLANHPEIEGIRARTLRLLIMAAKRID,not soluble
18,MGHHHHHHSHMANSAGSMANSAGSLPTTTIGSFPQSREVRKYRADWKNKRITDEAYETFLKNEIARWIKIQEDIGLDVLVHGEFERNDMVEFFGEKLQGFLVTKFGWVQSYGSRAVKPPIIYGDVKWTAPLTVDETVYAQSLTDKPVKGMLTGPVTILNWSFERVDLPRKVVQDQIALAINEEVLALEAAGIKVIQVDEPALREGLPLRSEYHEQYLKDAVLSFKLATSSVRDETQIHTHMCYSQFGQIIHAIHDLDADVISIETSRSHGDLIKDFEDINYDLGIGLGVYDIHSPRIPTKEEITTAINRSLQQIDRSLFWVNPDCGLKTRKEEEVKDALTVLVNAVKA,not soluble
19,MSLGKTSMIHAIVDQYSHCEWVENSMSANENNLIWIDLEMTGLDPERDRIIEIATLVTDANLNILAEGPTIAVHQSDEQLALMDDWNVRTHTASGLVERVKASTMGDREAELATLEFLKQWVPAGKSPICGNSIGQDRRFLFKYMPELEAYFHYRYLDVSTLKELARRWKPEILDGFTKQGTHQAMDDIRESVAELAYYREHFIKLEGGSHHHHHH,soluble
